In article PMC11083479, “A Multi-Faceted Binding Assessment of Aptamers Targeting the SARS-CoV-2 Spike Protein”:
Like-named read-outs stand apart in the source and are kept apart here.

B1: CoV2-RBD-4C (ssDNA)
DNA: ATCCAGAGTGACGCAGCATTTCATCGGGTCCAAAAGGGGCTGCTCGGGATTGCGGATATGGACACGT
B2: RBD-PB6 (XNA)
RNA: GGGGCCACCAACGACAUUUGUAAUUCCUGGACCGAUACUUCCGUCAGGACAGAGGUUGAUAUAAAUAGUGCCCAUGGAUCC
modifications: 2'-F-modified RNA
B3: CoV2-RBD-1C (ssDNA)
DNA: CAGCACCGACCTTGTGCTTTGGGAGTGCTGGTCCAAGGGCGTTAATGGACA
B4: Aptamer-2 (ssDNA)
DNA: ATCCAGAGTGACGCAGCAATTACCGATGGCTTGTTTGTAATGTAGGGTTCCGTCGGATTGGACACGGTGGCTTAGT
B5: nCoV-S1-A2 (ssDNA)
DNA: AGCAGCACAGAGGTCAGATGGCAGCTAAGCAGGCGGCTCACAAAACCATTCGCATGCGGCCCTATGCGTGCTACCGTGAA
B6: Aptamer-1 (ssDNA)
DNA: ATCCAGAGTGACGCAGCATCGAGTGGCTTGTTTGTAATGTAGGGTTCCGGTCGTGGGTTGGACACGGTGGCTTAGT

Legend:
[1] = biological target: T1, ACE2, His-tag (UniProt Q9BYF1 18-740); test: ELONA; conditions: protein: recombinant; tags: His; label: with or without biotin; SA-ATTO647N in flow cytometry
[2] = biological target: SARS-CoV-2 spike RBD, WT, His-tag (SARS-CoV-2 (WT), UniProt P0DTC2 319-541); test: BLI; BLI: PBS pH 7.4, 1 mM MgCl2 ([…]; flow cytometry 25 C ([…]; conditions: protein: recombinant; tags: His; label: with or without biotin; SA-ATTO647N in flow cytometry
[3] = biological target: SARS-CoV-2 spike RBD, WT, C-tag (SARS-CoV-2 (WT), UniProt P0DTC2 319-591); test: as above; conditions: protein: recombinant; tags: C-tag; label: with or without biotin; SA-ATTO647N in flow cytometry
[4] = biological target: T2, SARS-CoV-2 trimeric spike, WT, His-tag (SARS-CoV-2 (WT), UniProt P0DTC2 14-1208); conditions: protein: recombinant, tags: 8xHis (flow cytometry), chain copies: 3, label: with or without biotin, SA-ATTO647N in flow cytometry
[5] = biological target: SARS-CoV-2 spike S1, WT, His-tag (SARS-CoV-2 (WT), UniProt P0DTC2 16-685); test: BLI; conditions: protein: recombinant; tags: His; label: with or without biotin; SA-ATTO647N in flow cytometry
[6] = biological target: SARS-CoV-2 trimeric spike, WT, C-tag (SARS-CoV-2 (WT), UniProt P0DTC2); test: BLI; BLI: PBS pH 7.4, 1 mM MgCl2 ([…]; flow cytometry 25 C ([…]; conditions: protein: recombinant; tags: C-tag
[7] = biological target: SARS-CoV-2 spike RBD, WT, His-tag (SARS-CoV-2 (WT), UniProt P0DTC2 319-541); test: as above
[8] = biological target: SARS-CoV-2 spike RBD, WT, C-tag (SARS-CoV-2 (WT), UniProt P0DTC2 319-591); test: as above
[9] = biological target: SARS-CoV-2 spike S1, WT, His-tag (SARS-CoV-2 (WT), UniProt P0DTC2 16-685); test: BLI; conditions: protein: recombinant; tags: His
[10] = biological target: T3, SARS-CoV-2 trimeric spike, WT, His-tag (SARS-CoV-2 (WT), UniProt P0DTC2); test: flow cytometry; conditions: protein: recombinant, tags: 8xHis (flow cytometry)
[11] = biological target: T3, SARS-CoV-2 trimeric spike, WT, His-tag; test: flow cytometry; 37 C; non-binding control; conditions: protein: recombinant, tags: 8xHis (flow cytometry)
[12] = biological target: T3, SARS-CoV-2 trimeric spike, WT, His-tag; test: ELONA; conditions: protein: recombinant; tags: 8xHis (flow cytometry); His
[13] = biological target: SARS-CoV-2 trimeric spike, WT, C-tag (SARS-CoV-2 (WT), UniProt P0DTC2 16-1208); conditions: protein: recombinant; tags: C-tag; chain copies: 3; label: with or without biotin; SA-ATTO647N in flow cytometry
[14] = biological target: T3, SARS-CoV-2 trimeric spike, WT, His-tag; test: BLI; conditions: protein: recombinant; tags: 8xHis (flow cytometry); His
[15] = biological target: chemokine CCL17, untagged (human, UniProt Q92583 24-94); test: ELONA; 200 nM aptamer; BLI: PBS pH 7.4, 1 mM MgCl2 (MSA aptamers: 50 mM HEPES pH 7.4, 6 mM KCl, 150 mM NaCl, 2.5 mM CaCl2, 2.5 mM MgCl2), 0.1 mg/mL BSA, 0.02% Tween-20; ELONA 25 C in; conditions: protein: recombinant; tags: none; label: with or without biotin; SA-ATTO647N in flow cytometry
[16] = biological target: T1, ACE2, His-tag; test: as above; conditions: protein: recombinant; tags: His; label: with or without biotin; SA-ATTO647N in flow cytometry
[17] = biological target: T2, SARS-CoV-2 trimeric spike, WT, His-tag; test: ELONA; abolished by 0.1 mg/mL dextran sulfate; conditions: protein: recombinant, tags: 8xHis (flow cytometry), chain copies: 3, label: with or without biotin, SA-ATTO647N in flow cytometry

T1 sequence (Q9BYF1 18-740): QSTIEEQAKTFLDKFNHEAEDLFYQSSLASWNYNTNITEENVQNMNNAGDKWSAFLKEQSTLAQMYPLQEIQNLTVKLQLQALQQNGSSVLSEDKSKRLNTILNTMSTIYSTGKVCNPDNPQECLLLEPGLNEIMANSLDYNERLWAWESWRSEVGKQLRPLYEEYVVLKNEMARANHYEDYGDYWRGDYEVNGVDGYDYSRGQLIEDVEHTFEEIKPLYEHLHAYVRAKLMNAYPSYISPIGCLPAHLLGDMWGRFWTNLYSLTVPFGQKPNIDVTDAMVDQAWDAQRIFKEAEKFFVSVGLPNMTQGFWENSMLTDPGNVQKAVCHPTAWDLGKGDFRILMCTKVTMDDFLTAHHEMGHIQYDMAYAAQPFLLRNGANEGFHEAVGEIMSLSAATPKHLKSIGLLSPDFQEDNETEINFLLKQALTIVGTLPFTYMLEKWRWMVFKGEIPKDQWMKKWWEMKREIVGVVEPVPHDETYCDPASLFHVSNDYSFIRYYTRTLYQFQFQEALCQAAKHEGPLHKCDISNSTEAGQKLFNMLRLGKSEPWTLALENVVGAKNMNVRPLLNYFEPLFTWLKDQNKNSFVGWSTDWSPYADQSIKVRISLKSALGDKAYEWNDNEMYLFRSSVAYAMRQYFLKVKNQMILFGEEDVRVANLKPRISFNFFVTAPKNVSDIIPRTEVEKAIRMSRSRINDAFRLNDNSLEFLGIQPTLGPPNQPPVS
Sequence of chemokine CCL17, untagged (Q92583 24-94): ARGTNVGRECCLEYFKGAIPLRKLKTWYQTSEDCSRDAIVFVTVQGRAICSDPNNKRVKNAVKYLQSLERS

Binder	binding result [3]	binding result [5]	binding result [6]	binding result [7]	binding result [9]	other results
B1	no binding	binds				binding result [1]: binds; binding result [2]: binds; binding result [4]: binds
B2			binds	binds	binds	binding result [8]: binds; binding result [10]: binds
B3	no binding	binds				binding result [2]: binds; binding result [4]: binds
CCCATGGTAGGTATTGCTTGGTAGCGATAGTGGG (ssDNA) [SP6.34C]						binding result [11]: no binding
CAACCCATGGTAGGTATTGCTTGGTAGGGATAGTGGGCTTG (ssDNA) [SP6.41]			binds	no binding	no binding	binding result [12]: binds
CGCAGCACCCAAGAACAAGGACTGCTTAGGATTGCGATAGGTTCGG (ssDNA) [CoV2-6C3]	no binding	binds				binding result [2]: binds; binding result [4]: binds; binding result [13]: binds
B4			no binding	binds	binds	binding result [14]: binds
TCCGGTTAATTTATGCTCTACCCGTCCACCTACCGGA (ssDNA) [MSA1-T3]			no binding	no binding		binding result [14]: binds
B5				no binding		
CTTCCACGGGTTTGGCGTCGGGCCTGGCGGGGGGATAGTGCGGTGGAAG (ssDNA) [MSA5-T4]	no binding	binds				binding result [15]: no binding; binding result [16]: no binding; binding result [17]: binds; binding result [13]: no binding
B6			no binding	binds	binds	binding result [14]: binds
